From patent publication US8828923B2, “Insulin derivatives” (Novo Nordisk A/S, priority 2003, dated 2014)

What was measured:
[1] = Hydrophobicity (hydrophobic index) k′rel relative to human insulin by isocratic RP-HPLC; type: physicochemical; conditions: LiChrosorb RP18, isocratic elution, 40° C., pH 7.3 phosphate/acetonitrile
Method: The elution was monitored by following the UV absorption of the eluate at 214 nm. Void time, t0, was found by injecting 0.1 mM sodium nitrate.

human insulin receptor = human insulin receptor (Homo sapiens, UniProt P06213); test: Assay (I) insulin receptor binding, SPA antibody capture assay; conditions: recombinant human insulin receptor - exon 11, A14 Tyr[125I]-human insulin tracer
Method: SPA-PVT antibody-binding beads, anti-mouse reagent (Amersham Biosciences, Cat No. PRNQ0017) were mixed with 25 ml of binding buffer (100 mM HEPES pH 7.8; 100 mM sodium chloride, 10 mM MgSO4, 0.025% Tween-20). […] A total of 100 μl was then added and a dilution series is made from appropriate samples. To the dilution series was then added 100 μl of reagent mix and the samples were incubated for 16 hours while gently shaken. The phases were the then separated by centrifugation for 1 min and the plates counted in a Topcounter. The binding data were fitted using the nonlinear regression algorithm in the GraphPad Prism 2.01 (GraphPad Software, San Diego, Calif.).
Specific antibodies (F12) were produced by monoclonal technique: RBF mice were immunized by injecting 50 μg of purified mIR in FCA subcutaneously followed by two injections with 20 μg of mIR in FIA. Highresponder mice were boosted intravenously with 25 μg of mIR and the spleens were harvested after 3 days. Spleen cells were fused with the myeloma Fox cell line (Kohler, G & Milstein C. (1976), European J. Immunology, 6:511-19; Taggart RT et al (1983), Science 219:1228-30). Supernatants were screened for antibody production in a mIR specific ELISA. Positive wells were cloned and tested in Western blotting.

Sprague Dawley male rats = test: Assay (II) potency relative to human insulin, euglycaemic clamp with i.v. infusion; type: in vivo; conditions: rat clamp, i.v. infusion for 300 min, 15 and 20 pmol/min/kg
Source text: Sprague Dawley male rats weighing 238-383 g on the experimental day were used for the clamp experiment. The rats had free access to feed under controlled ambient conditions and were fasted overnight (from 3 pm) prior to the clamp experiment.
The rats were acclimatized in the animal facilities for at least 1 week prior to the surgical procedure. Approximately 1 week prior to the clamp experiment Tygon catheters were inserted under halothane anaesthesia into the jugular vein (for infusion) and the carotid artery (for blood sampling) and exteriorised and fixed on the back of the neck. The rats were given Streptocilin vet. (Boehringer Ingelheim; 0.15 ml/rat, i.m.) post-surgically and placed in an animal care unit (25° C.) during the recovery period. In order to obtain analgesia, Anorphin (0.06 mg/rat, s.c.) was administered during anaesthesia and Rimadyl (1.5 mg/kg, s.c.) was administered after full recovery from the anaesthesia (2-3 h) and again once daily for 2 days.
The clamp technique employed was adapted from (1). At 7 am on the experimental day overnight fasted (from 3 pm the previous day) rats were weighed and connected to the sampling syringes and infusion system (Harvard 22 Basic pumps, Harvard, and Perfectum Hypodermic glass syringe, Aldrich) and then placed into individual clamp cages where they rested for ca. 45 min before start of experiment. The rats were able to move freely on their usual bedding during the entire experiment and had free access to drinking water. […] Plasma glucose levels were measured at 10 min intervals throughout and infusion of 20% aqueous glucose was adjusted accordingly in order to maintain euglyceamia. Samples of re-suspended erythrocytes were pooled from each rat and returned in about ½ ml volumes via the carotid catheter.
Rats were killed at the end of experiment using a pentobarbital overdose.
Test compounds and doses: Insulins to be tested were diluted from a stock solution containing 97 μM of the insulin derivative in 5 mM phosphate pH 7.7. The final concentration in the solution ready for use was 0.45 μM of the insulin derivative, 5 mM of phosphate, 100 mM of sodium chloride, 0.007% of polysorbate 20. The pH was 7.7 and the i.v. infusion rate was 15 and 20 pmol-min^−1−kg^−1.
Both stock solutions were stored at −20 C. and thawed overnight at 4° C. before use. The solutions were gently turned upside down several times 15 min before they were transferred to the infusion syringes.

human insulin receptor, sequence (P06213 28-746 isoform P06213-2 limits assumed): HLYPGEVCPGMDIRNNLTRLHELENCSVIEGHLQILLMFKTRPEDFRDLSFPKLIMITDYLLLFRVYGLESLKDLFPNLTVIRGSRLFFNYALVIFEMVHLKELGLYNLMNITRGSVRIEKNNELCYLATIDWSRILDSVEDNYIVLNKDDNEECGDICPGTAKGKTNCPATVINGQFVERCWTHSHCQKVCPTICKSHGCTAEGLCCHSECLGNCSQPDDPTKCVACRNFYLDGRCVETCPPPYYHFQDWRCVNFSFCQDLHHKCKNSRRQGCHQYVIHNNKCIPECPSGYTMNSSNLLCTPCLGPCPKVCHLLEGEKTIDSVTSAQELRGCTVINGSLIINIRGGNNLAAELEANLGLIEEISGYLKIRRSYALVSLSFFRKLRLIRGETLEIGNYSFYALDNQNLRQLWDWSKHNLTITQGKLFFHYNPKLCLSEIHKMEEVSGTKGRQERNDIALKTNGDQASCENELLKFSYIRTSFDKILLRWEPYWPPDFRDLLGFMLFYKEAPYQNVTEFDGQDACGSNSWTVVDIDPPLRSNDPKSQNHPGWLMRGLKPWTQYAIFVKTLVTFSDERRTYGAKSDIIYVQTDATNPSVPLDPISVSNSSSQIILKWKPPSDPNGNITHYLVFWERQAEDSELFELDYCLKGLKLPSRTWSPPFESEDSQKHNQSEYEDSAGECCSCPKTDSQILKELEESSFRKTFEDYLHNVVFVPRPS
human insulin receptor, sequence (P06213 763-1382 partner limits assumed): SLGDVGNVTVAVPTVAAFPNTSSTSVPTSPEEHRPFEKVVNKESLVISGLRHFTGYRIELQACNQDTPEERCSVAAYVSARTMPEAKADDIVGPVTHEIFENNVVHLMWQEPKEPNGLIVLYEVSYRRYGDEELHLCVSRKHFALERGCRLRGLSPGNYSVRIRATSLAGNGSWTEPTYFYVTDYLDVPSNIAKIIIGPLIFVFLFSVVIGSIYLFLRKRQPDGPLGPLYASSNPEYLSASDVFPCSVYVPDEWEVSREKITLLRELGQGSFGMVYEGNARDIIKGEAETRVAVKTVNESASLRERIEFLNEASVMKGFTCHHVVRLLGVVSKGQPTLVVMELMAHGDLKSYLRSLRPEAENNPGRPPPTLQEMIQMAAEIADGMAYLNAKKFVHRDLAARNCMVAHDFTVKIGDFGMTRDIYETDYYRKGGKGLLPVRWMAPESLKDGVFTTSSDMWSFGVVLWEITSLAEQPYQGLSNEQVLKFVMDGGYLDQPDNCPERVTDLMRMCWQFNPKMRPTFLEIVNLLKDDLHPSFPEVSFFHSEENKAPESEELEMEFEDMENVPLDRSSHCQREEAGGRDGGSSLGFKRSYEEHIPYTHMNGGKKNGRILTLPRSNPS

Substance	k′rel (hydrophobic index relative to human insulin) [1]	Receptor binding (% of human insulin) (human insulin receptor)	Potency relative to human insulin (Sprague Dawley male rats)
N^εB29—(N—HOOC(CH2)16CO-α-L-Glu) des(B30) Human Insulin	1.51	16 % of human insulin	–
N^εB29—(N—(Gly-OC(CH2)16CO-γ-L-Glu) des(B30) Human Insulin	1.57	9.1 % of human insulin	–
N^εB29—(N—(Gly-OC(CH2)13CO-γ-L-Glu) des(B30) Human Insulin	0.58	22 % of human insulin	–
N^εB29—(N—HOOC(CH2)14CO-β-L-Asp) des(B30) Human Insulin	0.69	16 % of human insulin	>50%
N^εB29—[N—(HOOC(CH2)16CO)—N-(carboxymethyl)-β-Ala] des(B30) Human Insulin	1.13	9.4 % of human insulin	–
N^εB29—(N—(Gly-OC(CH2)14CO-γ-L-Glu) des(B30) Human Insulin	0.88	32 % of human insulin	>50%
N^εB29—(N^α-(HOOC(CH2)14CO)-γ-Glu) des(B30) Human Insulin	0.87	26 % of human insulin	>50%
N^εB29—(N—HOOC(CH2)13CO-β-L-Glu) des(B30) Human Insulin	0.54	15 % of human insulin	–
N^εB29—(N—(L-Sar-OC(CH2)13CO-γ-L-Glu) des(B30) Human Insulin	0.63	20 % of human insulin	–
N^εB29—(N—(L-Glu-OC(CH2)14CO-γ-L-Glu) des(B30) Human Insulin	0.33	13 % of human insulin	–
N^εB29—(N—HOOC(CH2)15CO-γ-L-Glu) des(B30) Human Insulin	1.13	4 % of human insulin	–
N^εB29—(N—HOOC(CH2)16CO-δ-L-Aad) des(B30) Human Insulin	0.84	7 % of human insulin	–
N^εB29—(N—HOOC(CH2)16CO-β-L-Asp) des(B30) Human Insulin	1.54	11 % of human insulin	–
N^εB29—(N—(L-Asp-OC(CH2)16CO)-γ-L-Glu) des(B30) Human Insulin	0.70	13 % of human insulin	–
N^εB29—(N^α-(HOOC(CH2)16CO)-γ-Glu—N-(γ-Glu)) des(B30) Human Insulin	1.17	11 % of human insulin	>50%
N^εB29—(N—HOOC(CH2)16CO-α-Glu)-N-(AspAsp) des(B30) human insulin	1.07	–	–
N^εB29—(N—HOOC(CH2)16CO-α-L-Asp) des(B30) Human Insulin	1.49	13 % of human insulin	–
N^εB29—[N^α-(HOOC(CH2)11)NHCO(CH2)3CO)-γ-L-Glu] des(B30) Human Insulin	0.42	46 % of human insulin	–
N^εB29—(N—HOOC(CH2)16CO-α-L-Asp)—N-(β-L-Asp) des(B30) Human Insulin	–	14 % of human insulin	–
N^εB29—(N—HOOC(CH2)14CO-β-D-Asp) des(B30) Human Insulin	–	37 % of human insulin	–
N^εB29—(N—HOOC(CH2)16CO-α-L-Glu)—N—(β-L-Asp) des(B30) Human Insulin	1.11	11 % of human insulin	–
N^εB29—(N—(L-Glu-OC(CH2)14CO—) des(B30) Human Insulin	1.17	9.4 % of human insulin	–
N^εB29—(N—HOOC(CH2)16CO-γ-D-Glu) des(B30) Human Insulin	1.4	13 % of human insulin	–
N^εB29—(N—HOOC(CH2)15CO-β-L-Asp) des(B30) Human Insulin	1.09	5.4 % of human insulin	–
N^εB29—(N—HOOC(CH2)8CO-γ-Glu) des(B30) human insulin	0.45	–	–
N^εB29—(N—HOOC(CH2)13CO-β-L-Asp) des(B30) Human Insulin	0.47	11 % of human insulin	–
N^εB29—(N—(HOOC(CH2)14CO-ε-L-LysCO—) des(B30) Human Insulin	0.90	5.7 % of human insulin	–
NεB29—(Nα-(HOOC(CH2)16CO)-γ-Glu) des(B30) Human Insulin	1.15	9.2 % of human insulin	>50%
